Results taken from the supplement of paper PMC10126150.
± gives the standard deviation of the averaged measurements.

What follows are sequences tested on ATP (assay: switch fluorescence ratio, 500 uM ATP over buffer (Cy3 cluster intensity, sum of 5 cycles each) (fold (ratio)); higher = stronger signal-on switching upon ATP binding; sequences stand for … in TCGTCGGCAGCGTCAGATGTGTATAAGAGACAGTTTTTTTTTTTTTTTTTTTTTTTTT…TC). Details: aptamer strand: ATP DNA aptamer (quencher-CACCTGGGGGAGTATTGCGGAGGAAGG + anchor), 100 nM annealed; ATP concentration: 500 uM.
Summary of the method: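 The quencher-labelled ATP aptamer, at 100 nM, was annealed to Cy3-labelled switching-strand clusters on a modified Illumina MiSeq flow-cell. The clusters were imaged in selection buffer, then after 15 min with 500 uM ATP at 22 °C, and this buffer/ATP cycle ran five times with NaOH stripping and re-annealing between runs. Per-cluster fluorescence ratios, summed target-cycle over summed buffer-cycle Cy3 intensity, were averaged per switch-domain sequence. Clusters outside 100-1000 RFU were excluded.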
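Further: ATP exposure 15 min at 22 °C before imaging.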

| Sequence | switch fluorescence ratio |
| --- | --- |
| GGTTAAACTT | 1.02 ± 0.012 |
| GGTTAAATTA | 1.01 ± 0.013 |
| GGTTAACGTC | 1.03 ± 0.15 |
| GGTTAAGCCG | 0.996 ± 0.017 |
| GGTTAAGCCT | 1.05 ± 0.043 |
| GGTTAAGTCT | 0.946 ± 0.053 |
| GGTTAATCGT | 0.98228 ± 0.00062 |
| GGTTACGTAG | 1.045 ± 0.0078 |
| GGTTACTGTT | 1.08 ± 0.096 |
| GGTTACTTTA | 1.07 ± 0.064 |
| GGTTAGAAGG | 0.96 ± 0.031 |
| GGTTAGATAG | 1.01 ± 0.035 |
| GGTTAGGGGC | 0.995 ± 0.04 |
| GGTTAGTAGG | 0.986 ± 0.021 |
| GGTTAGTATT | 0.987 ± 0.021 |
| GGTTAGTGTC | 1.05 ± 0.047 |
| GGTTAGTGTG | 0.997 ± 0.015 |
| GGTTATAGCT | 1.02 ± 0.034 |
| GGTTATCCGG | 1.01 ± 0.032 |
| GGTTATCGAT | 0.999 ± 0.0014 |
| GGTTATGCTG | 1.03 ± 0.1 |
| GGTTATGGGG | 0.985 ± 0.027 |
| GGTTCAAGGG | 0.984 ± 0.02 |
| GGTTCAGGTA | 0.9876 ± 0.0062 |
| GGTTCAGTG | 0.9936 ± 0.0079 |

| Sequence | switch fluorescence ratio |
| --- | --- |
| GGTTCCTTA | 0.994 ± 0.045 |
| GGTTCGGGAA | 0.9965 ± 0.0022 |
| GGTTCGGGGG | 0.997 ± 0.037 |
| GGTTCGGTTC | 1.02 ± 0.017 |
| GGTTCGTATA | 1.01 ± 0.017 |
| GGTTCGTTGG | 0.993 ± 0.013 |
| GGTTCTAAGA | 0.98129 ± 0.00096 |
| GGTTCTACTC | 1.02 ± 0.013 |
| GGTTCTATGG | 0.99441 ± 3.1e-05 |
| GGTTCTGATC | 0.981 ± 0.01 |
| GGTTCTTATA | 1.046 ± 0.008 |
| GGTTGAACCG | 1.01 ± 0.06 |
| GGTTGAAGTG | 0.974 ± 0.012 |
| GGTTGACGGG | 0.985 ± 0.055 |
| GGTTGAGGAG | 1.04 ± 0.074 |
| GGTTGAGTGG | 1 ± 0.036 |
| GGTTGATATG | 1 ± 0.041 |
| GGTTGATTTA | 1.036 ± 0.0037 |
| GGTTGCAGAG | 1.01 ± 0.024 |
| GGTTGCAGGG | 1.01 ± 0.011 |
| GGTTGCATTA | 0.9923 ± 0.0019 |
| GGTTGCGTCT | 0.9613 ± 0.003 |
| GGTTGGAAAG | 0.9919 ± 0.0013 |
| GGTTGGCATA | 0.984 ± 0.016 |
| GGTTGGCCCC | 1.02 ± 0.019 |

| Sequence | switch fluorescence ratio |
| --- | --- |
| GGTTGGGTGT | 1.02 ± 0.027 |
| GGTTGGTATT | 1.001 ± 0.0099 |
| GGTTGTAGTT | 0.963 ± 0.016 |
| GGTTGTATGG | 0.975 ± 0.012 |
| GGTTGTCCTA | 0.978 ± 0.023 |
| GGTTGTCTGC | 0.968 ± 0.055 |
| GGTTGTGGCA | 1.03 ± 0.011 |
| GGTTGTTACG | 0.987 ± 0.033 |
| GGTTGTTCCG | 0.9973 ± 0.0073 |
| GGTTTAAGTC | 1.06 ± 0.029 |
| GGTTTACAGC | 0.979 ± 0.012 |
| GGTTTACGGC | 1 ± 0.016 |
| GGTTTACTG | 1.03 ± 0.035 |
| GGTTTAGAGC | 1.01 ± 0.02 |
| GGTTTAGGCA | 0.999 ± 0.027 |
| GGTTTCCATT | 1 ± 0.054 |
| GGTTTCCCTG | 0.9984 ± 0.0033 |
| GGTTTCCTTT | 0.992 ± 0.021 |
| GGTTTCGACG | 1.01 ± 0.011 |
| GGTTTCGGCG | 0.966 ± 0.04 |
| GGTTTCTAGG | 0.99311 ± 0.00018 |
| GGTTTCTCCG | 1.46 ± 0.017 |
| GGTTTCTGAA | 0.998 ± 0.02 |
| GGTTTCTTCG | 1.09 ± 0.1 |
| GGTTTCTTGA | 1.02 ± 0.021 |

| Sequence | switch fluorescence ratio |
| --- | --- |
| GGTTTGACGG | 1.01 ± 0.053 |
| GGTTTGATGT | 0.975 ± 0.023 |
| GGTTTGCAGC | 0.975 ± 0.021 |
| GGTTTGTCGT | 0.957 ± 0.04 |
| GGTTTGTGTG | 0.991 ± 0.018 |
| GGTTTTAAAT | 0.98195 ± 0.00028 |
| GGTTTTAGCT | 0.997 ± 0.016 |
| GGTTTTAGGG | 0.996 ± 0.039 |
| GGTTTTAGTG | 0.967 ± 0.037 |
| GGTTTTATGC | 0.985 ± 0.0053 |
| GGTTTTATGG | 0.988 ± 0.027 |
| GGTTTTATTG | 0.987 ± 0.044 |
| GGTTTTATTT | 0.984 ± 0.068 |
| GGTTTTCGTT | 0.99 ± 0.021 |
| GGTTTTCTCG | 1.03 ± 0.023 |
| GGTTTTCTGG | 1.02 ± 0.027 |
| GGTTTTGATC | 0.972 ± 0.047 |
| GGTTTTGGCC | 1.02 ± 0.03 |
| GGTTTTTAAA | 1 ± 0.062 |
| GGTTTTTCGT | 0.977 ± 0.024 |
| GGTTTTTGCT | 0.9584 ± 0.0068 |
| GGTTTTTGTC | 1.01 ± 0.013 |
| GGTTTTTTAT | 1.02 ± 0.019 |
| GTAAAAAGTG | 1.05 ± 0.17 |
| GTAAAATAGA | 1.01 ± 0.034 |
